From the supplement of paper PMC9112550, “Optimization of the antimicrobial peptide Bac7 by deep mutational scanning” (BMC Biology, 2022)

test system: Escherichia coli TOP10; assay: shrunken log2 fold change of peptide-encoding DNA abundance (4.5 h post-induction vs induction); higher = less antimicrobial activity (less host growth inhibition); conditions: time post-induction: 4.5 h; library: site-saturation at positions 5, 18, 19, 20
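Further: peptides expressed intracellularly from a pBAD plasmid library in pooled LB shake-flask culture, induced with 0.3% L-arabinose, DNA abundance read by NGS, three biological replicates, DESeq2 with apeglm shrinkage.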

Row | Sequence | shrunken log2 fold change
1 | RRIRKRPPRLPRPRPRPQNRPRP | -0.169
2 | RRIRGRPPRLPRPRPRPMCPPRP | 0.0883
3 | RRIRERPPRLPRPRPRPLFKPRP | -0.543
4 | RRIRLRPPRLPRPRPRPIMEPRP | -0.193
5 | RRIRNRPPRLPRPRPRPYHIPRP | -0.366
6 | RRIRKRPPRLPRPRPRPLCAPRP | 0.604
7 | RRIRIRPPRLPRPRPRPENYPRP | -0.405
8 | RRIRLRPPRLPRPRPRPNDDPRP | -0.248
9 | RRIRERPPRLPRPRPRPKRVPRP | -0.0417
10 | RRIRYRPPRLPRPRPRPFGIPRP | -0.149
11 | RRIRPRPPRLPRPRPRPCNVPRP | -0.314
12 | RRIRNRPPRLPRPRPRPNCFPRP | 0.0424
13 | RRIRWRPPRLPRPRPRPHHEPRP | -0.262
14 | RRIRERPPRLPRPRPRPARIPRP | -0.246
15 | RRIRLRPPRLPRPRPRPLEMPRP | 0.203
16 | RRIRFRPPRLPRPRPRPHYEPRP | -0.0922
17 | RRIRFRPPRLPRPRPRPQWYPRP | -0.981
18 | RRIRHRPPRLPRPRPRPLKVPRP | 0.0138
19 | RRIRDRPPRLPRPRPRPINKPRP | -0.287
20 | RRIRERPPRLPRPRPRPAEMPRP | -0.0352
21 | RRIRHRPPRLPRPRPRPCAGPRP | -0.195
22 | RRIRKRPPRLPRPRPRPFQVPRP | 0.0377
23 | RRIRGRPPRLPRPRPRPLIVPRP | 0.274
24 | RRIRERPPRLPRPRPRPVQVPRP | -0.227
25 | RRIRKRPPRLPRPRPRPNSCPRP | 0.188

Row | Sequence | shrunken log2 fold change
26 | RRIRHRPPRLPRPRPRPVKRPRP | -0.226
27 | RRIRWRPPRLPRPRPRPFWLPRP | 0.0108
28 | RRIRMRPPRLPRPRPRPVPPPRP | 0.901
29 | RRIRARPPRLPRPRPRPLHRPRP | 0.281
30 | RRIRTRPPRLPRPRPRPWHKPRP | -0.168
31 | RRIRRRPPRLPRPRPRPKRVPRP | 0.298
32 | RRIRDRPPRLPRPRPRPCTRPRP | 0.0736
33 | RRIRYRPPRLPRPRPRPVTDPRP | -0.418
34 | RRIRSRPPRLPRPRPRPFVFPRP | -0.102
35 | RRIRSRPPRLPRPRPRPLPQPRP | 0.461
36 | RRIRLRPPRLPRPRPRPWGWPRP | 0.264
37 | RRIRHRPPRLPRPRPRPEMTPRP | 0.0257
38 | RRIRVRPPRLPRPRPRPVHCPRP | -0.0781
39 | RRIRQRPPRLPRPRPRPNHWPRP | -0.176
40 | RRIRARPPRLPRPRPRPIEHPRP | 0.126
41 | RRIRVRPPRLPRPRPRPCDAPRP | 0.121
42 | RRIRARPPRLPRPRPRPETKPRP | 1.27
43 | RRIRKRPPRLPRPRPRPEFPPRP | 0.0804
44 | RRIRIRPPRLPRPRPRPGAFPRP | -0.294
45 | RRIRGRPPRLPRPRPRPTHIPRP | 0.255
46 | RRIRTRPPRLPRPRPRPQIFPRP | -0.716
47 | RRIRMRPPRLPRPRPRPNFRPRP | 0.0542
48 | RRIRKRPPRLPRPRPRPLQVPRP | 0.333
49 | RRIRWRPPRLPRPRPRPFWQPRP | -0.00499
50 | RRIRWRPPRLPRPRPRPYQWPRP | -0.0641

Row | Sequence | shrunken log2 fold change
51 | RRIRNRPPRLPRPRPRPVVLPRP | -0.179
52 | RRIRHRPPRLPRPRPRPPTLPRP | 0.246
53 | RRIRVRPPRLPRPRPRPTVRPRP | 0.126
54 | RRIRDRPPRLPRPRPRPAMKPRP | -0.0728
55 | RRIRKRPPRLPRPRPRPNLGPRP | 0.207
56 | RRIRQRPPRLPRPRPRPVSAPRP | 0.104
57 | RRIRNRPPRLPRPRPRPAPGPRP | 0.164
58 | RRIRRRPPRLPRPRPRPWTCPRP | 0.0743
59 | RRIRARPPRLPRPRPRPDHQPRP | -0.0683
60 | RRIRKRPPRLPRPRPRPTEQPRP | 2.01
61 | RRIRVRPPRLPRPRPRPFNEPRP | -0.258
62 | RRIRKRPPRLPRPRPRPGRKPRP | 0.0872
63 | RRIRARPPRLPRPRPRPENEPRP | 0.868
64 | RRIRWRPPRLPRPRPRPQQLPRP | -0.289
65 | RRIRRRPPRLPRPRPRPWMRPRP | 0.172
66 | RRIRQRPPRLPRPRPRPHYYPRP | -0.0332
67 | RRIRKRPPRLPRPRPRPDGYPRP | -0.0936
68 | RRIRWRPPRLPRPRPRPYHQPRP | -0.0735
69 | RRIRCRPPRLPRPRPRPEYDPRP | -0.173
70 | RRIRKRPPRLPRPRPRPAVVPRP | 0.0614
71 | RRIRDRPPRLPRPRPRPSMTPRP | 0.237
72 | RRIRARPPRLPRPRPRPEYHPRP | 0.0454
73 | RRIRERPPRLPRPRPRPSGAPRP | -0.12
74 | RRIRARPPRLPRPRPRPRDPPRP | 0.948
75 | RRIRERPPRLPRPRPRPLQEPRP | -0.154

Row | Sequence | shrunken log2 fold change
76 | RRIRVRPPRLPRPRPRPMSMPRP | -0.323
77 | RRIRTRPPRLPRPRPRPCPNPRP | -0.000921
78 | RRIRNRPPRLPRPRPRPAADPRP | 0.342
79 | RRIRLRPPRLPRPRPRPHNPPRP | -0.883
80 | RRIRIRPPRLPRPRPRPVNAPRP | -0.113
81 | RRIRFRPPRLPRPRPRPHRLPRP | 0.0835
82 | RRIRPRPPRLPRPRPRPQMHPRP | 0.143
83 | RRIRYRPPRLPRPRPRPSHAPRP | -0.242
84 | RRIRKRPPRLPRPRPRPSPQPRP | 0.219
85 | RRIRYRPPRLPRPRPRPYWGPRP | -0.0899
86 | RRIRNRPPRLPRPRPRPHVLPRP | -0.245
87 | RRIRHRPPRLPRPRPRPLHRPRP | -0.158
88 | RRIRARPPRLPRPRPRPDYMPRP | -0.0383
89 | RRIRRRPPRLPRPRPRPPGYPRP | 1.22
90 | RRIRARPPRLPRPRPRPALSPRP | 0.628
91 | RRIRRRPPRLPRPRPRPPLRPRP | 0.964
92 | RRIRLRPPRLPRPRPRPLMQPRP | -0.0571
93 | RRIRNRPPRLPRPRPRPDIVPRP | -0.0101
94 | RRIRSRPPRLPRPRPRPNTGPRP | -0.336
95 | RRIRYRPPRLPRPRPRPKAAPRP | 0.067
96 | RRIRWRPPRLPRPRPRPASDPRP | 0.342
97 | RRIRHRPPRLPRPRPRPNDVPRP | -0.0131
98 | RRIRNRPPRLPRPRPRPVYYPRP | -0.562
99 | RRIRVRPPRLPRPRPRPDDSPRP | 0.13
100 | RRIRWRPPRLPRPRPRPYNGPRP | -0.668

Row | Sequence | shrunken log2 fold change
101 | RRIRLRPPRLPRPRPRPKGTPRP | 0.0017
102 | RRIRYRPPRLPRPRPRPNYTPRP | -0.562
103 | RRIRTRPPRLPRPRPRPYRAPRP | -0.0709
104 | RRIRVRPPRLPRPRPRPKGPPRP | 0.36
105 | RRIRLRPPRLPRPRPRPEFPPRP | -0.0973
106 | RRIRCRPPRLPRPRPRPNVMPRP | -0.337
107 | RRIRYRPPRLPRPRPRPEYAPRP | -0.0128
108 | RRIRTRPPRLPRPRPRPKYRPRP | -0.135
109 | RRIRWRPPRLPRPRPRPEEDPRP | 0.00839
110 | RRIRQRPPRLPRPRPRPGHNPRP | 0.0106
111 | RRIRNRPPRLPRPRPRPVIMPRP | 0.178
112 | RRIRCRPPRLPRPRPRPYELPRP | -0.18
113 | RRIRFRPPRLPRPRPRPVMVPRP | -1.14
114 | RRIRLRPPRLPRPRPRPRIWPRP | 0.394
115 | RRIRNRPPRLPRPRPRPYNLPRP | 0.00765
116 | RRIRGRPPRLPRPRPRPHIIPRP | 0.234
117 | RRIRMRPPRLPRPRPRPASWPRP | 0.901
118 | RRIRMRPPRLPRPRPRPLNTPRP | 0.163
119 | RRIRGRPPRLPRPRPRPKRNPRP | 0.624
120 | RRIRLRPPRLPRPRPRPFWKPRP | 0.379
121 | RRIRTRPPRLPRPRPRPFHAPRP | -0.0296
122 | RRIRKRPPRLPRPRPRPESDPRP | 0.262
123 | RRIRGRPPRLPRPRPRPVFIPRP | 0.0618
124 | RRIRLRPPRLPRPRPRPQLVPRP | 0.144
125 | RRIRYRPPRLPRPRPRPFAWPRP | -0.0365
